According to paper PMC12431793, “Identification of antibodies induced by immunization with the syphilis vaccine candidate Tp0751” (Vaccine, 2025):

Tests used:
Settings in all cases: both partners purified
Tp0751_(24–237) [1] = target: T1, Tp0751_(24–237) (Treponema pallidum subsp. pallidum, …, UniProt O83732); test: ELISA; titration: plates coated with 15 pmol/well Tp0751_(24–237) in 1xTBS pH 7.4; 0.2 pM-33 nM rabbit antibodies serially diluted in 4 % skim milk in TBS, 1 h at room temperature; anti-rabbit IgG-HRP
T1 construct: The biotinylated, streptavidin-tetramerised form was used only to stain and sort B cells, not in BLI or ELISA; also called soluble Tp0751_(24–237); mature Tp0751 protein

Tp0751_(115–237) = target: T2, Tp0751_(115–237) (Treponema pallidum subsp. pallidum, …, UniProt O83732); test: ELISA; epitope mapping: 33pM of antibody on plate-coated Tp0751_(24–237), Tp0751_(99–237) or Tp0751_(115–237)
T2 construct: Tp0751 of Treponema pallidum, amino acids 115-237 (N-terminal truncation; lipocalin structural fold); also called Tp0751 lipocalin structural/functional domain

Tp0751_(99–237) = target: T3, Tp0751_(99–237) (Treponema pallidum subsp. pallidum, …, UniProt O83732); test: as above
T3 construct: Tp0751 of Treponema pallidum, amino acids 99-237 (N-terminal truncation; alpha helix cap 99-114 and lipocalin domain 115-237)

Tp0751_(24–237) [2] = target: T1, Tp0751_(24–237); test: as above
Tp0751_(24–237) [3] = target: T1, Tp0751_(24–237); test: BLI; OctetRed, room temperature, shaking at 500 RPM; 40 μg/mL antibody loaded on Protein A capture biosensors; 0.1, 0.7 or 6 μM Tp0751_(24–237) in solution, 5 min association, 5 min dissociation in kinetics buffer

T1 sequence (O83732 24-237): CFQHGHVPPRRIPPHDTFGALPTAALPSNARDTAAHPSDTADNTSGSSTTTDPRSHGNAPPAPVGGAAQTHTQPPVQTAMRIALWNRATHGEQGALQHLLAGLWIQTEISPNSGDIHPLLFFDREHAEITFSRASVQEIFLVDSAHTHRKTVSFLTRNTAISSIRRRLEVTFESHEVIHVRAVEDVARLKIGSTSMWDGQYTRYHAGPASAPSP
T3 sequence (O83732 99-237): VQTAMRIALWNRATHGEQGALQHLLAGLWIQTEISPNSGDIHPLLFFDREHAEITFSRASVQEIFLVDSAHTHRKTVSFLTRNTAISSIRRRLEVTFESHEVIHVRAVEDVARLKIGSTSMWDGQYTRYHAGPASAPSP
T2 sequence (O83732 115-237): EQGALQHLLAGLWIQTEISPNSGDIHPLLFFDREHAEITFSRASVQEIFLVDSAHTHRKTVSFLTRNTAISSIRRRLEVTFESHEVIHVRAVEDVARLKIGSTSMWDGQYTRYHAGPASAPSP

B1: 2101D12 (antibody, V domains shown)
VH: QQLEESGGGLVKPGGTLTLTCKASGWDFSSSYWISWVRQAPGKGLEWIAYINTDSLKTYYATWAKGRFTVSKTSSTTVTLQVTSLTAADTATYFCADGAFWGPGTLVTVSS
VL: DVVMTQTPASVSAAVGGTVTINCQASQSINSWLSWYQQKPGQPPKRLINDASTLESGVPSRFKGSGCGTQFTLTISDLECADAATYYCQSHYFSRSIDYYNAFGGGTEVVVK
notes: made as rabbit IgG; source: produced and purified as rabbit IgG by Sino Biological
Tp0751_(24–237) [1]
  binding result: binds
Tp0751_(115–237)
  binding result: binds
Tp0751_(99–237)
  binding result: binds

B2: 2101B3 (antibody, V domains shown)
VH: QSLEESGGDLVKPGASLTLTCTASGLDFSGYYYICWVRQAPGKGLEWIGCIWPGDGDTDYASWAKGRFTVSKTSSTTVDLKVTTLTAADTATYFCGRLLGSGSAYFNLWGPGTLVTVSS
VL: AVVMTQTPSSVSEAVGGTVTIKCQASQTIGEALAWYQQKPGQPPKLLIYKASTVASGVPWRFKGSGCGSEYTLTISGVQCEDAATYYCQQGYSLTIIDNLFGGGTEVVVE
notes: as for B1
Tp0751_(24–237) [2]
  binding result: binds
Tp0751_(115–237)
  binding result: binds
Tp0751_(99–237)
  binding result: binds

B3: 2092D3 (antibody, V domains shown)
VH: QSVEESGGRLVTPGTPLTLTCTVSGFSLSSYTMSWVRQAPGKGLEWIGVISGSDTLSYATWAKGRFTISKTSTTVDLKITSPTTADTATYFCARDGGYSDYDHAPNIWGPGTLVTVSL
VL: DVVMTQTPASVEAAVGGTVTIKCQASQSIYNYLAWYQQKPGQPPKLLIYQASKVASGVPSRFKGRGSGTQFTLTISDLECADAATYYCQWSFYDSNYIGAFGGGTEVVVK
notes: as for B1
Tp0751_(24–237) [1]
  binding result: binds
Tp0751_(115–237)
  binding result: no binding (tested: 33pM of antibody)
Tp0751_(99–237)
  binding result: binds

B4: 2092E3 (antibody, V domains shown)
VH: QSVEESGGRLVTPGTPLTLTCTVSGIDLSSYAMSWVRQAPGKGLEWIGVIGDMDIVSYATWAKGRFTISKTSTTVDLKITSPTTADTATYFCAGDGGYSDYDHAPNIWGPGTLVTVSL
VL: DVVMTQTPASVEAAVGGTVTIKCHASESIYDYLAWYQQKPGQPPKLLISKASTLASGVPSGFKASGSGTLFTLTISDLECADAATYYCQWSFYDHYYVGAFGGGTEVVVK
notes: as for B1
Tp0751_(24–237) [2]
  binding result: binds
Tp0751_(115–237)
  binding result: no binding (tested: 33pM of antibody)
Tp0751_(99–237)
  binding result: binds

B5: 2101A3 (antibody, V domains shown)
VH: QSLEESGGGLVKPGGTLTLTCKASGFDLSSYYYMCWVRQAPGKGLEWIACTYISSGSTWYASWAKGRFTVSKPSSTTVTLQMTSLTAADTATYFCAREVGSPEYGYYLDLWGPGTLVTVSS
VL: DVVMTQTPASVEAAVGGTVTIKCQASQSISSWLSWYQQKPGQPPKLLIYQASKLASGVPSRFKGSGCGTEYTLTISDLECADGATYYCQTYYGSGSSNYHAFGGGTEVVVK
notes: as for B1
Tp0751_(24–237) [1]
  binding result: binds
Tp0751_(115–237)
  binding result: no binding (tested: 33pM of antibody)
Tp0751_(99–237)
  binding result: binds

B6: 2131F4 (antibody, V domains shown)
VH: QSVEESGGDLVKPEGSLTLTCTASEFSFNTNHYVCWVRQAPGKGLEWLACVAGGGSGATYYATWAKGRFTLSRTSSSTVTLEMTSLAPADTATYFCARVDSTDFNFDLWGPGTLVTVSS
VL: DPVMTQTPSPVSAAVGGTVSISCQSSQIVYNDNWLSWYQQKPGQPPKRLIYGTSNSASGVPSRFKGSGCGTQFTLTISDVQCDDAATYYCQGGYLVGDVYVFGGGTEVVVK
notes: as for B1
Tp0751_(24–237) [2]
  binding result: binds
Tp0751_(115–237)
  binding result: no binding (tested: 33pM of antibody)
Tp0751_(99–237)
  binding result: no binding (tested: 33pM of antibody)

B7: 2091E9 (antibody, V domains shown)
VH: QSVEESGGRLVTPGGSLTLTCTVSGFSLSSYVMTWVRQAPGKGLEWIGYIYIDGYTTWYASWVKGRFTISRTSTTVDLKMTSLSTEDTATYFCVRVGATIDFMMRRLDLWGQGTLVTVSS
VL: DVVMTQTPSSVSAAVRGTVTIKCQASPSVYSDYLSWYQQKPGQRPKLLMYGTSTLASGVPSRFKGSGSGTQFTLTISDVQCDDAATYYCAGGFNSGADSFAFGGGTEVVVQ
notes: as for B1
Tp0751_(115–237)
  binding result: binds
Tp0751_(24–237) [3]
  binding result: binds
